Tests used:
[1] = target: 14-3-3 protein epsilon (Homo sapiens) (UniProt P62258); assay: PIF-agarose affinity extraction of normal human liver lysate 1, LC-MS/MS
[2] = target: 78 kDa glucose-regulated protein (Homo sapiens) (UniProt P11021); assay: as above
[3] = target: Activated RNA polymerase II transcriptional coactivator p15 (Homo sapiens) (UniProt P53999); assay: as above
[4] = target: Alcohol dehydrogenase 1A (Homo sapiens) (UniProt P07327); assay: as above
[5] = target: Alcohol dehydrogenase 1B (Homo sapiens) (UniProt P00325); assay: as above
[6] = target: Alcohol dehydrogenase 4 (Homo sapiens) (UniProt P08319); assay: as above
[7] = target: Alpha-actinin-4 (Homo sapiens) (UniProt O43707); assay: as above
[8] = target: Calmodulin (Homo sapiens) (UniProt P0DP23); assay: as above
[9] = target: Calreticulin (Homo sapiens) (UniProt P27797); assay: as above
Calreticulin (Homo sapiens), sequence (P27797 18-417 limits assumed): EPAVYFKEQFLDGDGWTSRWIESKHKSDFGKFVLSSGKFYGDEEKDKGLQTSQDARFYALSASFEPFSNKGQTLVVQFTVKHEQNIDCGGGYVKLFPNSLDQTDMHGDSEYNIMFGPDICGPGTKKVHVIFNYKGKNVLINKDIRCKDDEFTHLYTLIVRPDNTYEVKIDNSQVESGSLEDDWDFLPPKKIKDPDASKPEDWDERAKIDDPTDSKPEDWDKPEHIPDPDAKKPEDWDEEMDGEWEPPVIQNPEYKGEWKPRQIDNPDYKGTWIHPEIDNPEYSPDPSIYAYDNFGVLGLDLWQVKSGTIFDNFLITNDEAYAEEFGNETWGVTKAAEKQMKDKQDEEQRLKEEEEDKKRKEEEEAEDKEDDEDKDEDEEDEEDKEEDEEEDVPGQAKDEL

[10] = target: Cytochrome b-c1 complex subunit 6, mitochondrial (Homo sapiens) (UniProt P07919); assay: as above
[11] = target: Cytochrome b5 (Homo sapiens) (UniProt P00167); assay: as above
Cytochrome b5 (Homo sapiens), sequence (P00167 2-134 limits assumed): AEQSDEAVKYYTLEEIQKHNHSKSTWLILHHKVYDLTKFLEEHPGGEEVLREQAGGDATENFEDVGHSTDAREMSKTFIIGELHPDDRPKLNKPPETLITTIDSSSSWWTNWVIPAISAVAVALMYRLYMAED

[12] = target: Cytosolic 10-formyltetrahydrofolate dehydrogenase (Homo sapiens) (UniProt O75891); assay: as above
Cytosolic 10-formyltetrahydrofolate dehydrogenase (Homo sapiens), sequence (O75891 whole entry): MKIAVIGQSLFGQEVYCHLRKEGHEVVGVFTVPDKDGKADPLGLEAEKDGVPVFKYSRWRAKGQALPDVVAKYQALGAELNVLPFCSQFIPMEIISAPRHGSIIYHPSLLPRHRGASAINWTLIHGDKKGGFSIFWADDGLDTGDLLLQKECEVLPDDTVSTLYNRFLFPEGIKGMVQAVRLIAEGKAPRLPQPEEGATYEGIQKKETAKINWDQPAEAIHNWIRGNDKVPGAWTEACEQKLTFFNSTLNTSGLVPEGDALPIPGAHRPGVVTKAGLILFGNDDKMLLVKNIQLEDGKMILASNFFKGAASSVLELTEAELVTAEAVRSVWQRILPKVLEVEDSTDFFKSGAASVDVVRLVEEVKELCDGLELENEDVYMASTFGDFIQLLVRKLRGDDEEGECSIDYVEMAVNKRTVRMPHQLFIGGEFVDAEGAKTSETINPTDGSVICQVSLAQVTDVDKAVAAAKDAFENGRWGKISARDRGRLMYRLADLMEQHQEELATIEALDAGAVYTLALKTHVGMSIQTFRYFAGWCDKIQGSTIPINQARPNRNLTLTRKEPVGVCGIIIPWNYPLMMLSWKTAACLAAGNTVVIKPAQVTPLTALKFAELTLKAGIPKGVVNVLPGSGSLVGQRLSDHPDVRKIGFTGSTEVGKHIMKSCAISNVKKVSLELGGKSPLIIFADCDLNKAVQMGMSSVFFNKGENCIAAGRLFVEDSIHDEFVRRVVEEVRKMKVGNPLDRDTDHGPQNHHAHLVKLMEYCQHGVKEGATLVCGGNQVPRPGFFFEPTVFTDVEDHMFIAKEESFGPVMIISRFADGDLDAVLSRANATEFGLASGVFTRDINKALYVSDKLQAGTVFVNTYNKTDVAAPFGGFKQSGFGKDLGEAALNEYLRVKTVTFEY

[13] = target: Delta-aminolevulinic acid dehydratase (Homo sapiens) (UniProt P13716); assay: as above
[14] = target: Endoplasmin (Homo sapiens) (UniProt P14625); assay: as above
Endoplasmin (Homo sapiens), sequence (P14625 22-803 limits assumed): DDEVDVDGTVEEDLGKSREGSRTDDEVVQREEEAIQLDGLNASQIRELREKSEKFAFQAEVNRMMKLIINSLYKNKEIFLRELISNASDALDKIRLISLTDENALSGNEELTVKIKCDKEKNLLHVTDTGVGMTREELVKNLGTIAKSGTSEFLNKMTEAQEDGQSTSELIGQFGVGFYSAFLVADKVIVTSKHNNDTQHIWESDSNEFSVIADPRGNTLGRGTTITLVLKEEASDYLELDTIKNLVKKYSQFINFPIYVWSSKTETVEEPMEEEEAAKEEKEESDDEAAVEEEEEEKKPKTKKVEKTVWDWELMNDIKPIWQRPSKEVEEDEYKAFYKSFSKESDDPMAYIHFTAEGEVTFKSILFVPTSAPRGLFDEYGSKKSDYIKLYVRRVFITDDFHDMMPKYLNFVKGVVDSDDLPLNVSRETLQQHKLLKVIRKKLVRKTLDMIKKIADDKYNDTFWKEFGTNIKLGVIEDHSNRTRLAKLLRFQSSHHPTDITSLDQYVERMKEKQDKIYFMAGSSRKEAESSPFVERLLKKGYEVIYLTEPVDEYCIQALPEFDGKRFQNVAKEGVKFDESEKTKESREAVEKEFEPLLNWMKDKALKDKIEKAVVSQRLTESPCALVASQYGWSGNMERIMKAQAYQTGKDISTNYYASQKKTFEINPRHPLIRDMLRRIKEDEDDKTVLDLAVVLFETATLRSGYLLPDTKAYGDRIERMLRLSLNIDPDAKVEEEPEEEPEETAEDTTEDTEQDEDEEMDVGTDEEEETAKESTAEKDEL

[15] = target: Enoyl-CoA hydratase domain-containing protein 2, mitochondrial (Homo sapiens) (UniProt Q86YB7); assay: as above
Enoyl-CoA hydratase domain-containing protein 2, mitochondrial (Homo sapiens), sequence (Q86YB7 36-292 limits assumed): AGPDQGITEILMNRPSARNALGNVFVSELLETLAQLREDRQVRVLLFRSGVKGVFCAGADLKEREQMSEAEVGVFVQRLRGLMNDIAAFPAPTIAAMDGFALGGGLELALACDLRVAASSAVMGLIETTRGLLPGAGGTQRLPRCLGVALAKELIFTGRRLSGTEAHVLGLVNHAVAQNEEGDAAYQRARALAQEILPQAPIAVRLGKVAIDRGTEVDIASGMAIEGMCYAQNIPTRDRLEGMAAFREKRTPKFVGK

[16] = target: Hepatoma-derived growth factor (Homo sapiens) (UniProt P51858); assay: as above
[17] = target: Membrane-associated progesterone receptor component 1 (Homo sapiens) (UniProt O00264); assay: as above
[18] = target: Parathymosin (Homo sapiens) (UniProt P20962); assay: as above
Parathymosin (Homo sapiens), sequence (P20962 2-102 limits assumed): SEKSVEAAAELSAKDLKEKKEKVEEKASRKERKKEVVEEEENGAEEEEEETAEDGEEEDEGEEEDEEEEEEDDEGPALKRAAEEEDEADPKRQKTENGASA

[19] = target: Peroxiredoxin-1 (Homo sapiens) (UniProt Q06830); assay: as above
Peroxiredoxin-1 (Homo sapiens), sequence (Q06830 2-199 limits assumed): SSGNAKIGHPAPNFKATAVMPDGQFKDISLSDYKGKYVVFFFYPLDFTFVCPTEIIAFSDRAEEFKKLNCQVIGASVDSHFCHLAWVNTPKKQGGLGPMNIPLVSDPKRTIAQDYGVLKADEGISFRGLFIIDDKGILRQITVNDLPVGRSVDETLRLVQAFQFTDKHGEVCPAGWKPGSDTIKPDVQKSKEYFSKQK

[20] = target: Protein disulfide-isomerase (Homo sapiens) (UniProt P07237); assay: as above
Protein disulfide-isomerase (Homo sapiens), sequence (P07237 18-508 limits assumed): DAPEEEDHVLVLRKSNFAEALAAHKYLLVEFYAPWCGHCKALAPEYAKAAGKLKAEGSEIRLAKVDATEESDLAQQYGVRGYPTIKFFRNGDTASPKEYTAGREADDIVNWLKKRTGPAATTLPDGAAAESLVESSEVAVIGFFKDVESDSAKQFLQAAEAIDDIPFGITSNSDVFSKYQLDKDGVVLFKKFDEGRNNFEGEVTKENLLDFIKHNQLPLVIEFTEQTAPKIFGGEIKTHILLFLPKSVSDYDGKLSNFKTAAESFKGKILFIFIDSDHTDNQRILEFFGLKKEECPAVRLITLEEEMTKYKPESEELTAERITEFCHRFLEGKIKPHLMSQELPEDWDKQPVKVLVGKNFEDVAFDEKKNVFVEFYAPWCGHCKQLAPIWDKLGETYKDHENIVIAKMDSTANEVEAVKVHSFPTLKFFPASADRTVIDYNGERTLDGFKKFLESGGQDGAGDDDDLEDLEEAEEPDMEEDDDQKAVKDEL

[21] = target: Protein disulfide-isomerase A3 (Homo sapiens) (UniProt P30101); assay: as above
[22] = target: Protein disulfide-isomerase A4 (Homo sapiens) (UniProt P13667); assay: as above
[23] = target: Transitional endoplasmic reticulum ATPase (Homo sapiens) (UniProt P55072); assay: as above
[24] = target: Tropomyosin alpha-4 chain (Homo sapiens) (UniProt P67936); assay: as above
Tropomyosin alpha-4 chain (Homo sapiens), sequence (P67936 2-248 limits assumed): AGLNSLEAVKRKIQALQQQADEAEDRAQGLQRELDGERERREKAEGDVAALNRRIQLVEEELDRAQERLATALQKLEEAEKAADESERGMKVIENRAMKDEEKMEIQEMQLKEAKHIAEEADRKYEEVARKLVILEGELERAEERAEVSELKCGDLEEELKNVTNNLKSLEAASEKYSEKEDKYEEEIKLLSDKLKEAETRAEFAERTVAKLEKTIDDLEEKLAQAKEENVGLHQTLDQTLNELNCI

Vimentin (Homo sapiens) [25] = target: Vimentin (Homo sapiens) (UniProt P08670); assay: as above
Vimentin (Homo sapiens), sequence (P08670 2-466 limits assumed): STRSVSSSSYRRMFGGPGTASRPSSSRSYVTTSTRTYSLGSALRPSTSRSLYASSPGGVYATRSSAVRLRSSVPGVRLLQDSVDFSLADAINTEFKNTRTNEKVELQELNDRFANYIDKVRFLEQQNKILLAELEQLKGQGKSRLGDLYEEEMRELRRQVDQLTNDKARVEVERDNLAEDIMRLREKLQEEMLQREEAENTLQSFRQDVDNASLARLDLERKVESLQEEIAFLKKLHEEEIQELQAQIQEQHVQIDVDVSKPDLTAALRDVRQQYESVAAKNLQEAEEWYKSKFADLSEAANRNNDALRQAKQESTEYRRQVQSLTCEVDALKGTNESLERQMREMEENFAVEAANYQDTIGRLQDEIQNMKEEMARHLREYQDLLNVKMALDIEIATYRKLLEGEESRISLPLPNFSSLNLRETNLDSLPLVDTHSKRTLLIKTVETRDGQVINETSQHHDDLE

[26] = target: 14-3-3 protein epsilon (Homo sapiens) (UniProt P62258); assay: PIF-agarose affinity extraction of normal human liver lysate 2, LC-MS/MS
[27] = target: 78 kDa glucose-regulated protein (Homo sapiens) (UniProt P11021); assay: as above
[28] = target: Activated RNA polymerase II transcriptional coactivator p15 (Homo sapiens) (UniProt P53999); assay: as above
[29] = target: Calmodulin (Homo sapiens) (UniProt P0DP23); assay: as above
[30] = target: Calreticulin (Homo sapiens) (UniProt P27797); assay: as above
[31] = target: Cytochrome b5 (Homo sapiens) (UniProt P00167); assay: as above
[32] = target: Cytosolic 10-formyltetrahydrofolate dehydrogenase (Homo sapiens) (UniProt O75891); assay: as above
[33] = target: Endoplasmin (Homo sapiens) (UniProt P14625); assay: as above
[34] = target: Enoyl-CoA hydratase domain-containing protein 2, mitochondrial (Homo sapiens) (UniProt Q86YB7); assay: as above
[35] = target: Peroxiredoxin-1 (Homo sapiens) (UniProt Q06830); assay: as above
[36] = target: Protein disulfide-isomerase (Homo sapiens) (UniProt P07237); assay: as above
[37] = target: Tropomyosin alpha-4 chain (Homo sapiens) (UniProt P67936); assay: as above
Vimentin (Homo sapiens) [38] = target: Vimentin (Homo sapiens) (UniProt P08670); assay: as above

14-3-3 protein epsilon (Homo sapiens), sequence (P62258 whole entry): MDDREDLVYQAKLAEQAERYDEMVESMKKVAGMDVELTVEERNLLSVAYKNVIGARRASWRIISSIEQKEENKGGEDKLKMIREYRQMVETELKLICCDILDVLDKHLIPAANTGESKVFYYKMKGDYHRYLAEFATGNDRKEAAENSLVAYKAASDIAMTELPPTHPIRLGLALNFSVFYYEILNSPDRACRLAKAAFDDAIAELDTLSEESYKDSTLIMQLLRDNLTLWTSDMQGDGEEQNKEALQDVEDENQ
78 kDa glucose-regulated protein (Homo sapiens), sequence (P11021 19-654 limits assumed): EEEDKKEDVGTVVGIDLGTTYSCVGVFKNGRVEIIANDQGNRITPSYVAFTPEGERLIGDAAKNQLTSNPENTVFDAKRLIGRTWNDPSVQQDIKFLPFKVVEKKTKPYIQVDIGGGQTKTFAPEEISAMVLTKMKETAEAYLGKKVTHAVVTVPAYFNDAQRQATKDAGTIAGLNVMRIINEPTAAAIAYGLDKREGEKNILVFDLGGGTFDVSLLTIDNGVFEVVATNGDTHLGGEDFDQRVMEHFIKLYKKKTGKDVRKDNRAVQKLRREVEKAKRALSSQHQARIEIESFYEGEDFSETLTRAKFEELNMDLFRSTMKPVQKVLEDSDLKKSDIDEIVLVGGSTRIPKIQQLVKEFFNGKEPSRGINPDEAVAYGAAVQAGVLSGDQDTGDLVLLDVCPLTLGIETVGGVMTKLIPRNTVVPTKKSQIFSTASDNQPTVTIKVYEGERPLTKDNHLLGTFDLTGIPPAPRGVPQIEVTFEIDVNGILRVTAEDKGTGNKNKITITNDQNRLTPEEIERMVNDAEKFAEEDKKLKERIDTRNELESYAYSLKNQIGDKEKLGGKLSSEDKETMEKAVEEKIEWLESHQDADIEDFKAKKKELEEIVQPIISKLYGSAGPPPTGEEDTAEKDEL

Question: What does the source list for sPIF-1(15) (peptide)?
Answer: % Coverage of the unique peptides observed [1]: 78%; % Coverage of the unique peptides observed [2]: 55%; % Coverage of the unique peptides observed [3]: 45%; % Coverage of the unique peptides observed [4]: 48%; % Coverage of the unique peptides observed [5]: 47%; % Coverage of the unique peptides observed [6]: 53%; % Coverage of the unique peptides observed [7]: 48%; % Coverage of the unique peptides observed [8]: 46%; % Coverage of the unique peptides observed [9]: 63%; % Coverage of the unique peptides observed [10]: 53%; % Coverage of the unique peptides observed [11]: 49%; % Coverage of the unique peptides observed [12]: 64%; % Coverage of the unique peptides observed [13]: 47%; % Coverage of the unique peptides observed [14]: 47%; % Coverage of the unique peptides observed [15]: 45%; % Coverage of the unique peptides observed [16]: 60%; % Coverage of the unique peptides observed [17]: 46%; % Coverage of the unique peptides observed [18]: 58%; % Coverage of the unique peptides observed [19]: 57%; % Coverage of the unique peptides observed [20]: 76%; % Coverage of the unique peptides observed [21]: 45%; % Coverage of the unique peptides observed [22]: 52%; % Coverage of the unique peptides observed [23]: 52%; % Coverage of the unique peptides observed [24]: 47%; % Coverage of the unique peptides observed (Vimentin (Homo sapiens) [25]): 50%; % Coverage of the unique peptides observed [26]: 71%; % Coverage of the unique peptides observed [27]: 51%; % Coverage of the unique peptides observed [28]: 44%; % Coverage of the unique peptides observed [29]: 46%; % Coverage of the unique peptides observed [30]: 69%; % Coverage of the unique peptides observed [31]: 56%; % Coverage of the unique peptides observed [32]: 34%; % Coverage of the unique peptides observed [33]: 45%; % Coverage of the unique peptides observed [34]: 42%; % Coverage of the unique peptides observed [35]: 58%; % Coverage of the unique peptides observed [36]: 76%; % Coverage of the unique peptides observed [37]: 48%; % Coverage of the unique peptides observed (Vimentin (Homo sapiens) [38]): 49%

— patent US20230190867A1, “METHODS OF TREATING NASH AND COMPOSITIONS THEREFORE” (BIOINCEPT, LLC, priority 2018, published 2023)
